Results published in patent US20260167681A1 (POSTECH RESEARCH AND BUSINESS DEVELOPMENT FOUNDATION, published 2026).

Target: T1, ovalbumin (OVA) (UniProt P01012 2-386)
T1 construct: also called model antigen ovalbumin
T1 sequence (looked up): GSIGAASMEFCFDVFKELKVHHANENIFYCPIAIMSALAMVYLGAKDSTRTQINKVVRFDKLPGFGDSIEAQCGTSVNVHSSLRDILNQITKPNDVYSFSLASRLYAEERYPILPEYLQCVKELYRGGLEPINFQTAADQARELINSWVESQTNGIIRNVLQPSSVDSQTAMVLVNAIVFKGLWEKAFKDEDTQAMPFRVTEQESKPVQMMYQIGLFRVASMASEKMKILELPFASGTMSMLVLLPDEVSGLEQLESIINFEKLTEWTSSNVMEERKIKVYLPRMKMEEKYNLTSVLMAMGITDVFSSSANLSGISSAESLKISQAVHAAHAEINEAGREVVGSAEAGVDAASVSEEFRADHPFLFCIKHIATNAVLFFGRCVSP
Assay: zeta potential (DLS, Zetasizer) of ovalbumin/MAP-AP mixtures at weight ratios 2, 1 and 0.5
Method: First, ovalbumin and the adhesive adjuvant protein (MAP-AP) were prepared at a concentration of 1 mg/mL each, and nanocomplexes were then prepared with ovalbumin and MAP-AP at weight ratios of 2, 1, and 0.5, respectively. Dynamic light scattering (DLS, Zetasizer, UK) was used to measure the surface charge of the samples. The concentration of each substance was maintained below 1 mg/mL, and all measurements were performed at room temperature.
As a result, the spontaneous formation of nanocomplexes by the negatively charged ovalbumin and adhesive adjuvant protein (MAP-AP) was confirmed through changes in surface charge. When the mass ratio of ovalbumin to MAP-AP reached 1 or higher, the adhesive adjuvant protein (MAP-AP) became saturated, and the mass ratio was ultimately set to 1.

B1: adhesive adjuvant protein (MAP-AP; MAP-based Adjuvant Protein) (other)
chain: MAKPSYPPTYKAKPSYPPTYKAKPSYPPTYKAKPSYPPTYKAKPSYPPTYKAKPSYPPTYKPWSSEEYKGGYYPGNTYHYHSGGSYHGSGYHGGYKGKYYGKAKKYYYKYKNSGKYKYLKKARKYHRKGYKKYYGGGSSAKPSYPPTYKAKPSYPPTYKAKPSYPPTYKAKPSYPPTYKAKPSYPPTYKAKPSYPPTYKLGGGGSAKFVAAWTLKAAA
notes: Recombinant fusion protein made in E. coli; also called MAP-based Adhesive adjuvant protein
- mass ratio of ovalbumin to MAP-AP at which MAP-AP is saturated: ≥ 1 mass ratio (ovalbumin:MAP-AP)
